One block for each binder: values may come before it.
How the values were obtained:
[1] = target: T1, FLAG-tagged SSB-1 truncated form lacking only the SOCS box (mouse, UniProt Q9D5L7 1-231, limits assumed); experiment: co-immunoprecipitation with anti-myc from transfected 293T cells, Western blot with anti-FLAG
T1 construct: domain: SSB-1 lacking only the SOCS box; Transiently expressed in 293T cells; also called truncated form of SSB-1 lacking only the SOCS box
T1 sequence: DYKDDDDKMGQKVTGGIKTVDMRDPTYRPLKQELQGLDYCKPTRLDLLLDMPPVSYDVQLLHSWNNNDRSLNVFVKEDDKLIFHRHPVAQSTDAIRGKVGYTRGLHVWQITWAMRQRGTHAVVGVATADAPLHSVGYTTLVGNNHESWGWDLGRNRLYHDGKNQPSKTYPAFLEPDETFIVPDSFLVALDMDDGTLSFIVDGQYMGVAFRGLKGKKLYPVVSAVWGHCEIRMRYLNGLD
Source text: To further confirm the generality of this interaction for other proteins containing a SOCS box, 293T fibroblasts were transfected with N-terminally FLAG-tagged WSB-2 or SSB-1 along with elongin B containing a FLAG epitope or elongin C containing a myc epitope.

[2] = target: T2, GST (glutathione-S-transferase control) (UniProt P08515 1-218 = GST, covalently coupled to NHS-activated Sepharose resin); experiment: GST-Sepharose pull-down from M1 cell lysate, Coomassie gel and Western blot
T2 construct: also called GST-Sepharose; GST control
Experimental: M1 cells (2 ×10^10) were lysed on ice for 30 min in 100 ml of lysis buffer supplemented with protease inhibitors (Complete Cocktail tablets; Boehringer Mannheim, Mannheim, Germany), 1 mM PMSF, 1 mM Na_3VO_4 and 1 mM NaF. The total cell lysate was centrifuged at 15,000 rpm (SS34 rotor) for 15 min at 4° C. and the clarified supernatant pre-incubated with 1 ml of GST-Sepharose resin for 2 h at 4° C. Half the GST-Sepharose-depleted M1 cell lysate was incubated with 1 ml of GST-SOCS-1 SOCS box- and the other half with GST-SOCS-3 SOCS box-Sepharose resin for 2 h at 4° C. The affinity resins were washed with 40 ml of lysis buffer and then eluted with 8×0.5 ml of elation buffer. Eluates were concentrated to ~40 μl, mixed with 15 μl of 4×SDS sample buffer containing 0.4 M DTT and resolved on a 14% polyacrylamide gel (Novex). The gel was stained for 5 min with 0.1% w/v Coomassie blue in 50% w/v methanol and destained in 12% w/v methanol and 7% w/v acetic acid.
Isolated SOCS box sequences were used as affinity reagents to identify interacting proteins in cell lysates. […] (GST) fusion proteins containing the SOCS box sequences from SOCS-1 or SOCS-3 were coupled to Sepharose beads and used as affinity resins to bind proteins from M1 cell lysates. […]

[3] = target: T3, elongin C (endogenous, murine M1 cells) (murine, UniProt P83940 1-112); experiment: anti-FLAG M2 immunoprecipitation from M1 cells, FLAG peptide elution, Western blot
T3 construct: Endogenous protein from cell lysate; present together with elongin B; also called 15 kDa band
Experimental: FIG. 2 is a photographic representation showing competition of SOCS-1 SOCS box interaction with elongin C. Biotinylated SOCS-1 SOCS box peptide was immobilized on streptavidin-agarose resin and used to affinity purify interacting proteins from M1 cellular extracts in the presence (+) or absence (–) of […] competing non-biotinylated SOCS box peptides. Proteins were separated by SDS-PAGE on a 4–15% w/v acrylamide gel, and bands were visualized by silver staining. Soluble SOCS box peptides corresponding to SOCS-1, ASB-2 and WSB-2 prevented binding of elongin C to immobilized SOCS-1 SOCS box FIG. 3 is a photographic representation showing interaction of SOCS-1 with endogenous elongins B and C. Cellular extracts from M1 cells stably expressing either full-length SOCS-1 or SOCS-1 lacking SOCS box (both proteins were N-terminally FLAG-tagged) were incubated with anti-FLAG antibody M2 resin and bound cellular proteins were eluted from the columns with FLAG peptide as described in Materials and Methods. Lanes 1–3 correspond to column eluates 3 to 5 from M1 cells expressing full-length SOCS-1 and lanes 4–6 correspond to column eluates 3 to 5 from M1 cells expressing SOCS-1 lacking SOCS box. The panels from top to bottom correspond to Western blot analyses by anti-FLAG, anti-elongin C, anti-elongin B, and a mixture of anti-elongin B and anti-elongin C, respectively. […]

[4] = target: T4, gp130 (endogenous, M1 cells) (murine, UniProt Q00560 23-917); experiment: anti-FLAG affinity column from unstimulated M1 cells, FLAG peptide elution, Western blot
T4 sequence (looked up): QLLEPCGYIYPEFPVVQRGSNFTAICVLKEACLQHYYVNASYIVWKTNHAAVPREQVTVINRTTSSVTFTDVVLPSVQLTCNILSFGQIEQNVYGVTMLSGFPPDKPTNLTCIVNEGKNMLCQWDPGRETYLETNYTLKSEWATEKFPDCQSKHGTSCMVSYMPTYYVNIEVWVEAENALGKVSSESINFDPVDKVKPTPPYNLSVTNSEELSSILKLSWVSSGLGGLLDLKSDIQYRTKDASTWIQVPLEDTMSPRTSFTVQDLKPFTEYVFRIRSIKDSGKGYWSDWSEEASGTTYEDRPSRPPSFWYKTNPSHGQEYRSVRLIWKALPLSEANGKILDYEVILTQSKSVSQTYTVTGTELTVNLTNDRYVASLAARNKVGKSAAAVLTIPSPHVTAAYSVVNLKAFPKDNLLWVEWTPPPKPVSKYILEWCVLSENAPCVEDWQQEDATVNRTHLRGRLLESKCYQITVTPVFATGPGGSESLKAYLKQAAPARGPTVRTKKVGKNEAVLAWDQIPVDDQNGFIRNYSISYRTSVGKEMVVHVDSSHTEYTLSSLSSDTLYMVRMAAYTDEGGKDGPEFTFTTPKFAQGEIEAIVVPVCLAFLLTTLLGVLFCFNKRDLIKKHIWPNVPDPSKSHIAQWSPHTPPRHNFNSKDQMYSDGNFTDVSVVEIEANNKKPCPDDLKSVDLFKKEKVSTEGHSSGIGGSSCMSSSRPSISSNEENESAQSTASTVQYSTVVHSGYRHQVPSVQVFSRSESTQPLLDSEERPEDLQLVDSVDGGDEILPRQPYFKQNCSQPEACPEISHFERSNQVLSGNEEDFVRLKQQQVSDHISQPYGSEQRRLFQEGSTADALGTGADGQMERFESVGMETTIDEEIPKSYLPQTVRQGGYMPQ
Source text: (§1) The inventors passed lysates from 10^9 unstimulated M1 cells expressing FLAG-tagged SOCS-1 through an anti-FLAG affinity column which was then eluted with FLAG peptide. The eluate was then subjected to SDS-PAGE and the proteins were Western blotted. The blot was then probed with anti-FLAG antibodies to confirm the presence of SOCS-1 and with a range of antibodies against proteins thought to interact with SOCS-1 (FIG. 7). It can be seen that SOCS-1 is capable of forming a complex with elongin B and elongin C, cullin 2, as well as JAK1 and gp130. To determine whether proteins in this complex interact directly or indirectly with SOCS-1, or whether all the proteins can be found together in a single complex, or whether separate complexes are, for example, formed between SOCS-1, JAK-1 and gp130 on one hand and between SOCS-1, elongin B and C and cullin-2, is addressed in part by performing the primary immunoprecipitation using a different antibody.

[5] = target: cullin 2 (endogenous, M1 cells) (murine, UniProt Q9D4H8 1-745); experiment: as above
Source text: as §1

[6] = target: JAK1 (endogenous, M1 cells) (murine, UniProt P52332 1-1153); experiment: as above
Source text: as §1

Chain of JAK1 (endogenous, M1 cells) (P52332 whole entry): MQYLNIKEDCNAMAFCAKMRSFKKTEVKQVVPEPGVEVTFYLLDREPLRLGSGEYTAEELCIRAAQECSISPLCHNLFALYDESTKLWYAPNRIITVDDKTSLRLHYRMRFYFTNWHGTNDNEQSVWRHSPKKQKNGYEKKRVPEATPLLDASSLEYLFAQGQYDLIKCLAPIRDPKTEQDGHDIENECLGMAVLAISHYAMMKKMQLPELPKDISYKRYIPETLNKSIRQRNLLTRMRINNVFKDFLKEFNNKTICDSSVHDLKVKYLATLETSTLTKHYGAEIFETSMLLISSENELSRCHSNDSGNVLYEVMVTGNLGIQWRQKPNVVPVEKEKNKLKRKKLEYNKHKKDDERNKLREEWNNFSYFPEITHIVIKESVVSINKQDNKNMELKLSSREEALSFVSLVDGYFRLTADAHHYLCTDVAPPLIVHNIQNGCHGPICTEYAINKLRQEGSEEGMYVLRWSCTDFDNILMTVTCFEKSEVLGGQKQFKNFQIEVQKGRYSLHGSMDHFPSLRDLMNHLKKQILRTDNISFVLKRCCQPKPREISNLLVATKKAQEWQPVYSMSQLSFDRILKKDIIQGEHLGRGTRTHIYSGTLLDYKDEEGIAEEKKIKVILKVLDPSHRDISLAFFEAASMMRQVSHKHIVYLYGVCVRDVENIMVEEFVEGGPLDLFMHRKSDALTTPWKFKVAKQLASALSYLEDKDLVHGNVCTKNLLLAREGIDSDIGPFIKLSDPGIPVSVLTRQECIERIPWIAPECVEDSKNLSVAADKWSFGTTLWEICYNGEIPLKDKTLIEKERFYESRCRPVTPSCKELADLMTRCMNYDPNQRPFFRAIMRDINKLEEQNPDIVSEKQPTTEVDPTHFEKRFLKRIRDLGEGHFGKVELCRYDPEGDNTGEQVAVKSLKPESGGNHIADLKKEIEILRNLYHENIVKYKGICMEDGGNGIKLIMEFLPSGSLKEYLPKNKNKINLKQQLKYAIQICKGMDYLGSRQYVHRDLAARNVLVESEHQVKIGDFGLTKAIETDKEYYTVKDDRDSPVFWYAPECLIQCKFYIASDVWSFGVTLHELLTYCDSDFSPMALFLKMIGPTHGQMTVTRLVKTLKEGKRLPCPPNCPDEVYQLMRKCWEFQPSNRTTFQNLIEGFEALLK
Chain of cullin 2 (endogenous, M1 cells) (Q9D4H8 whole entry): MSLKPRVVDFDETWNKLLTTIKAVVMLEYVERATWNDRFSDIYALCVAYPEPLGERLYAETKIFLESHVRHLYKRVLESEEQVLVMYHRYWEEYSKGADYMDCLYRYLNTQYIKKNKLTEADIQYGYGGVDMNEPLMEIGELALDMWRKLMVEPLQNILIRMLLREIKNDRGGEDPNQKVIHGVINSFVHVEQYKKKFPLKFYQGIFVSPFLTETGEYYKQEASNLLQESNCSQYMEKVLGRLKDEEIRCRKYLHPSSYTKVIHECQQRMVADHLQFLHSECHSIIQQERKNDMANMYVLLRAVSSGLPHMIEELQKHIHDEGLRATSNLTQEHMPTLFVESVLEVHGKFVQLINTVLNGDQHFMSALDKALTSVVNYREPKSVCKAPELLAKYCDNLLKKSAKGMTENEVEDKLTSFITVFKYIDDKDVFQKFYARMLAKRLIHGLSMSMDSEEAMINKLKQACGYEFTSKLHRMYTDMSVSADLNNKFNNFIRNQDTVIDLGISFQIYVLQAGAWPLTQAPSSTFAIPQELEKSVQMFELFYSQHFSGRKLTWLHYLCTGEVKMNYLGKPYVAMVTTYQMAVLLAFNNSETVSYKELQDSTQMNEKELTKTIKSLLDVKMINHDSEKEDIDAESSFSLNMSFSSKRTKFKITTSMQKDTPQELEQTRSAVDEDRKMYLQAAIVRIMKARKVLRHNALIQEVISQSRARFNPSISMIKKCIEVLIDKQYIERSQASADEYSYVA
T2 sequence (P08515 whole entry): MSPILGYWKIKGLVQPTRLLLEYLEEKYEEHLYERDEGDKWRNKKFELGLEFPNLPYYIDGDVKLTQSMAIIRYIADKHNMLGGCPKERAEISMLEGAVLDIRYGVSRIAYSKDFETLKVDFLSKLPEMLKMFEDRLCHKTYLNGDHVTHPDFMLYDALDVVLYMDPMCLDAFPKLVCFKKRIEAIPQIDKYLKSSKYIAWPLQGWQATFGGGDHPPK

binding result [1]: no binding
B1: elongin C containing a myc epitope (other, mouse)
chain: DQKLISEEDLMDGEEKTYGGCEGPDAMYVKLISSDGHEFIVKREHALTSGTIKAMLSGPGQFAENETNEVNFREIPSHVLSKVCMYFTYKVRYTNSSTEIPEFPIAPEIALELLMAANFLDC
notes: Transiently expressed in 293T cells; also called myc-elongin C

binding result [1]: no binding
B2: elongin B containing a FLAG epitope (other, mouse)
chain: DYKDDDDKMDVFLMIRRHKTTIFTDAKESSTVFELKRIVEGILKRPPEEQRLYKDDQLLDDGKTLGECGFTSQTARPQAPATVGLAFRADDTFEALRIEPFSSPPELPDVMKPQDSGGSANEQAVQ
notes: Transiently expressed in 293T cells; also called FLAG-elongin B

binding result [2]: no binding
B3: elongin B (endogenous, murine M1 cells) (other, UniProt P62869 1-118, looked up)
chain: MDVFLMIRRHKTTIFTDAKESSTVFELKRIVEGILKRPPEEQRLYKDDQLLDDGKTLGECGFTSQTARPQAPATVGLAFRADDTFEALRIEPFSSPPELPDVMKPQDSGGSANEQAVQ
notes: Endogenous protein from cell lysate; also called 18 kDa band

binding result [3]: binds
binding result [4]: binds
binding result [5]: binds
binding result [6]: binds
B4: N-terminally FLAG-tagged full-length SOCS-1 (other, mouse)
chain: DYKDDDDKMVARNQVAADNAISPAAEPRRRSEPSSSSSSSSPAAPVRPRPCPAVPAPAPGDTHFRTFRSHSDYRRITRTSALLDACGFYWGPLSVHGAHERLRAEPVGTFLVRDSRQRNCFFALSVKMASGPTSIRVHFQAGRFHLDGSRETFDCLFELLEHYVAAPRRMLGAPLRQRRVRPLQELCRQRIVAAVGRENLARIPLNPVLRDYLSSFPFQI
notes: Stably expressed in M1 cells; also called FLAG-tagged SOCS-1; intact SOCS-1

Reference: patent publication US7078174 (WALTER AND ELIZA HALL INSTITUTE OF MEDICAL RESEARCH, dated 2006)
